The results in this text go back to the nanobody polyreactivity screen of Harvey et al. (2022).

A short description of the series: yeast display, Sf9 membrane polyspecificity reagent, FACS + sequencing; frameworks hold sequencing errors. The essentials: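 After 36–48 hours of galactose induction, yeast (Saccharomyces cerevisiae BJ5465) displaying a synthetic nanobody library were stained at 4 °C for 1 hour with 10% biotinylated, detergent-solubilized Sf9 membrane reagent. Streptavidin microbeads enriched the stained cells before FACS sorting into low and high (top ~1%) gates on anti-HA and streptavidin fluorescence. Each clone's polyreactivity label reflects its gate of origin.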
Take “QVQVEESGGGVVQAGGSLRLSCAAYGRIFFRNAMGWYRPAPGKERELVAVINTGGSTNYADSVKGRFTISRDNAKNTVYLQMNRLKAEDTAVYYCAVDRASRRTYNQYGYWGQGTQVSVSS”: the “polyreactivity (PSR sort gate)” value is on record as “high polyreactivity”.
The same measure for “QVQVVDSGGGLVQAGGSLSLSCAASGSIFIYYAMGWYRQAPGKERELVAVINDDGSTNYADSVKGRFTISRDNAMNTVYLQMNSLKPEDTAVYYCNTTIGTYYSPSDYWGQGTQVTVSS”: “low polyreactivity”; for “QVQVVESGGGFVQAGGSLRVSCAASGSTFRANAMGCYTQAPGKERELVAAISQSGGITYYADSVKGRFTISRDIAKNTVYLQMNSLKPEDTAVYYCAAKIALDNDYWGQGTQVTVSS”: “high polyreactivity”; for “QVQVVESGGGLVKAGGSLRISCAASGRSFGANVMGWYRQAPGKEREFVAAISSSGGSTYYADSVKGRFTISRDNAKNTVYLQMNSVKPEDTAVYYCAAGGWPYSGGWFFQPNYDYWGQGTQVTVSS”: “low polyreactivity”.
As for “QVQVVESGGGLVQAGASLRLSCAATGSIFVWNDMGGYRQAPGTEREFVAAITSGDGSTYYADSVKGRFTISRDNAKNTGYLQMNSLKPEDTAVYYCAARLRVTGFYSRTRFYWGQGTQVTVSS”, the “polyreactivity (PSR sort gate)” value is “low polyreactivity”.
As to “QVQVVESGGGLVQAGGSLRLRCAASGRIFAHYAMGWYRQAPGKEREMVAAISSSGTRTYYADSVKGRFTISRDNAKKTVYLQMNSLKPEDTAVYYCAKDSYHTVWGGYWGQGTQVTVSS”, the “polyreactivity (PSR sort gate)” value is given as “high polyreactivity”.
Regarding “QVQVVESGGGLVQAGGSLRLSCAASGFTFYPNAMGWYRQAPGKERELVATITGSGGSTNYADSVKGRFPISRDTAQNTVYLQMNSLKPEDTAVYYCAADYAVYSFTDFNYWGQGTQVTVSS”, the “polyreactivity (PSR sort gate)” value was “high polyreactivity”.
In the case of “QVQVVESGGGLVQAGGSLRLSCAASGGIFYGYAMGWYRQAPGKERELVAAITSNGGTTYYADSVKGRFTISRDNAKNTVYLQMNSLKPEDTAVYYCDAYFKDSGSYYYWGQGTQVNVSS”, the “polyreactivity (PSR sort gate)” value is given as “low polyreactivity”.
The same measure for “QVQVVESGGGLVQAGGSLRLSCAASGRIFNYYAMGWYRPAPGKERELVATITGGGRTYYADSVKGRFTISRDNGMKTVYLQMNSLKPEDSAVYYCAAQYGGLSYRYDYWGQGTQVTVSS”: “high polyreactivity”.
As for “QVQVVESGGGLVQAGGSLRLSCAASGRTFDVYAMGWYRQAPGKERELVAAITERGSTYYADSVKRRFTISRDNAKNTDYLQMNSLKPVDTAVYDCAARTSGDGCIYYYWGQGTQVTVSS”, the entry is “high polyreactivity”; as for “QVQVVESGGGLVQAGGSLRLSCAASGRTFNPNVMGWYRQAPGKERELVAAISRGGSTYYADSVKGLFTISRDNAKNTVYLQMNSLKPEDTAVYYCAATHYGHSISNWFDYWGQGTQVTVSS”, “high polyreactivity”.
In the case of “QVQVVESGGGLVQAGGSLRLSCAASGRTFRDNAMGWYRQAPGNERELVAAISRSGGRTYYADSVKGRCTISRDNAKNTVYLQMNSLKPEDTAVYYCAAYYYTAGDSSARYDYWGQGTQVTVSS”, the “polyreactivity (PSR sort gate)” value is listed as “high polyreactivity”.
With “QVQVVESGGGLVQAGGSLRLSCAASGRTFRSYAMVWYRQAPGKERELVASISRGASTNYADSVNGRFTISRDNSKNTVYLQRNSLKPEDTAVYYCAAKYSWGYTYYYWGQGTQVTVSS”, the “polyreactivity (PSR sort gate)” value is given as “high polyreactivity”.
On to “QVQVVESGGGLVQAGGSLRLSCAASGSTFSRNAMGWYRQAPGKERELVAAINYSGGITYYADSVKGRFTISRDNAKNTVYLQMNSQKPEDTAVYYCAAVATNVPTHGRPSRRAYDYWGQGTQVTVSS”, for which the “polyreactivity (PSR sort gate)” value is “low polyreactivity”.
As for “QVQVVESGGGLVQAGGSLRLSCAASGSTFVTYAMGWYRQARVKERELVAGISTGDITNYADSVKVRFTISRDNAKNTVYLQINRLKPEDTAVYYCSADLIQGAAPFRYDYWGQGTQVTVSS”, the entry is “low polyreactivity”; as for “QVQVVESGGGLVQAGGSLRLSCAASGSTFYRYAMGWYRQAPGKERELVAAITRGGGRTYYADSVKGRFTISRDHAKNTVYLQMNSLKPEDSAVYYCNAASPYYDSWGQGTQVTVSS”, “high polyreactivity”.
For “QVQVVESVGGLVHAGCSLRLSCAASGRTFISNAMGWYRQAPGKERELVATITYSDATTYYADSVKGRFTISRDNAKNTVYLQMNSLKPEDTAVYYCIAQSRSYDRYISAGRRYDYWGQGTQVTVSS”, the “polyreactivity (PSR sort gate)” value is listed as “low polyreactivity”.
The same measure for “QVQVVQSGGGLVQAGGSLRLSCAASGSIFVPNSMGWYRPPPGKERELVAAISLSGGSTYYADSVKGRFTISRDYARNTVYLQMTSLKPEDSAVYYCAADIFYYSSSYGYWGLGTQVTVSS”: “low polyreactivity”; for “QVRLVESCGGLVQAGGSLRLSCAASGITFQYNAMGWYRQAPGKERELVATIRRGGITKYADSVKGRFTISRDNAKNTVYLQMNSLKPEDTAVYYCNADWVWRYSSDFDYWGQGTQVTVSS”: “low polyreactivity”; for “QVRLVESGGGLVQAGGSLRLSCAASGSTFWSYAMGWYRQAPGKERELVAAISWSGDSTYYADSVKGRFTISRDNAKNTVYLQMNSLKPEDTAVYYCAADYTGSFYTYDYWGQGTQVTVSS”: “low polyreactivity”.
In the case of “QVRLVESGGGLVQAGGSLRLSSAASGRIFNGNAMGWYRQAPGKERELVAAINRGGSTNYADSVKGRFTISRDNAKNTVYLQMNSLKPEDTAVYYCAAELLYATRWRRYSGYYDWGQGTQVTVSS”, the “polyreactivity (PSR sort gate)” value is recorded as “high polyreactivity”.
Take “QVWLQESGGGLVQACGSLRLRCAASGTISRDIFMGWYRQAPGKEREFVATIAQGGITNYADSVKGRFTISRDNAKNTVYLQMNSVKPGDTAVYYCAARDGNCYWFYYLGQGTQVTVSS”: the “polyreactivity (PSR sort gate)” value is recorded as “high polyreactivity”.
For “RFQLVESGGGLVQAGGSLRLSCAASGFTFRDYSMGGYRQAPGKERELVATISWGGASTSYADSVKGRFTISRDNAKNTVYLQMNSLKPEDTAVYYCNVRAQRRHGGYDHWGQGTLVTVSS”, the “polyreactivity (PSR sort gate)” value is on record as “low polyreactivity”.
Turning to “RVQLQESGGGLVQAGGSLRLSCAASGTIFIRGDMGWYRQAPGKEREFVATIDTGSNTYYADSEKGRFTISRDNAKNAVSLQMICLKPGDTAVYYCVVDYQLSGRLRYWGQGTQVTLSS”, the “polyreactivity (PSR sort gate)” value is “low polyreactivity”.
For “RVQLVESGGGLVQAGGSLRLSCAASGFTFRDYAMGWYRQAPGKERELVARIRIRDSNTYYADSVKGRFTISRDNAKNTVYLQMNSLKPEDTAVYYCAVVANYVYSKYDYWGQGTQVTVSS”, the “polyreactivity (PSR sort gate)” value is reported as “low polyreactivity”.
For “VQLVESGGGLVQAGGSLRLSCAASGFTFRWYAMGWYRQAPGKERELVAAISRGGNTNYADSVKGRFTISRDNANNTVYLQMNSLNPDDTAVYYCAAGHGSLRYNYWGQGSQVTVSS”, the “polyreactivity (PSR sort gate)” value is “high polyreactivity”.
“VQLVESGGGLVQAGVSLRLSCAASGSTFRPYAMGWYRQAPGKERELVAAITGSGGSTYYADSVKGRFTISRDNAKNTVYLQMNSLKPEDTAVYYCNAVSTWRYYYWGQGTQVTVSS”: the “polyreactivity (PSR sort gate)” value is recorded as “high polyreactivity”.
